The text below walks through data of patent JP2008512352A (dated 2008).

“And” between values parts separate entries of the source, which are not always exact repeats. Equal values may be shown once.

One test addresses T1, IGFR 細胞外ドメイン (プレート被覆) (human, UniProt P08069 31-935).
T1 construct: extracellular domain; 'ヒト' in the legend is read as applying to both EGFR and IGFR; also called 固定化IGFR; IGF-IR
Briefly: direct binding ELISA on immobilised IGFR (ED50: antibody concentration giving 50% of maximal binding).

In a further test the target is EGFR (腫瘍細胞上) (UniProt P00533 25-1210, limits assumed). In words: cell-based or functional assay.
Another test addresses T2, ヒトEGFR (プレート被覆) (human, UniProt P00533 25-645).
T2 construct: extracellular domain; 'Extracellular domain' in the legend is read as applying to both EGFR and IGFR; also called 固定化EGFR
Briefly: direct binding ELISA on immobilised EGFR (ED50: antibody concentration giving 50% of maximal binding). For orientation: An ELISA detects its analyte on a solid surface through an enzyme-linked reagent.

B1: IMC-A12 (antibody, V domains shown)
VH: EVQLVQSGAEVKKPGSSVKVSCKASGGTFSSYAISWVRQAPGQGLEWMGGIIPIFGTANYAQKFQGRVTITADKSTSTAYMELSSLRSEDTAVYYCARAPLRFLEWSTQDHYYYYYMDVWGKGTTVTVSS
VL: SSELTQDPAVSVALGQTVRITCQGDSLRSYYASWYQQKPGQAPVLVIYGKNNRPSGIPDRFSGSSSGNTASLTITGAQAEDEADYYCNSRDNSDNRLIFGGGTKLTVL
Usually EC50 stands for the midpoint of the concentration-response curve. A low value points to a more potent agent. In the test with IGFR 細胞外ドメイン (プレート被覆), B1 returned an EC50 of 0.1 nM.

B2: IMC-11F8 (antibody, V domains shown)
VH: QVQLQESGPGLVKPSQTLSLTCTVSGGSISSGDYYWSWIRQPPGKGLEWIGYIYYSGSTDYNPSLKSRVTMSVDTSKNQFSLKVNSVTAADTAVYYCARVSIFGVGTFDYWGQGTLVTVSS
VL: EIVMTQSPATLSLSPGERATLSCRASQSVSSYLAWYQQKPGQAPRLLIYDASNRATGIPARFSGSGSGTDFTLTISSLEPEDFAVYYCHQYGSTPLTFGGGTKAEIK
Take B2: in the test with EGFR (腫瘍細胞上), the “DiFi細胞の増殖阻害 IC50 (MTT)” value is roughly 1 nM.

B3: 抗-EGFR/抗-IGFR ジ-ダイアボディ (bispecific antibody)
chain 1: B2 VH
chain 2: B2 VL
chain 3: B1 VH
chain 4: B1 VL
Regarding B3, the “DiFi細胞の増殖阻害 IC50 (MTT)” value with EGFR (腫瘍細胞上) was found to be 25 nM. Besides, the EC50 with IGFR 細胞外ドメイン (プレート被覆) was 0.25 nM and 0.5 nM; with ヒトEGFR (プレート被覆), 0.1 nM and 0.2 nM.
